Data on three substances can be found in PMC4942676.

Test [1] deals with UBQLN UBL domain UBL (Homo sapiens) (UniProt Q9UMX0). The following applies: cited from earlier work.
The target in test [2] is UBQLN1 loaded with Ub-Omp25 (UniProt Q9UMX0). Description: pull-down; client (Omp25 or Ub-Omp25) translated in lysate lacking ubiquitin, UbcH5 and the major TMD-binding factors, supplemented with 40 nM recombinant FLAG-tagged UBQLN1 variant; affinity purified via the FLAG tag; autoradiography for the client, immunoblot for proteasome subunit α7. Background: In western blotting, separated proteins are transferred to a membrane and probed.

Test [3] has as its target FLAG-tagged construct containing the Omp25 TMD, translated in the PURE system. Description: co-sedimentation; Omp25 TMD construct translated in the PURE system with 35S-methionine and 15 uM recombinant chaperone; sucrose gradient, autoradiography.

Turning to “UBQLN UBA domain UBA (from UniProt Q9UMX0)”, the Kd in test [1] was 80 µM.
Take “proteasome, endogenous in rabbit reticulocyte lysate (from UniProt G1SZ14 1-326) (complex)”: in test [2], the fold proteasome association relative to UBQLN1 loaded with Omp25 was in the range of 2 to 3 fold.
On to “recombinant UBQLN1 (FLAG-tagged) (from UniProt Q9UMX0 1-589) (natural protein)”, for which the stoichiometry N in test [3] was determined as 1.

Broadly, the Kd is the constant that tells how readily two partners part at equilibrium. Broadly, the stoichiometry N is the number of molecules, sites or subunits per partner or assembly.
